# Assay results as given in patent publication US20130195866A1, “METHODS TO INHIBIT NEURODEGENERATION” (priority 2010, published 2013).
# Target: human amyloid β (Aβ) peptides secreted into the medium of Tg2576 neuron cultures (Aβ40, Aβ42 and their oligomers) (human) (UniProt P05067)
# Test: cell-based or functional assay
# Chain of human amyloid β (Aβ) peptides secreted into the medium of Tg2576 neuron cultures (Aβ40, Aβ42 and their oligomers) (human) (P05067 672-713 limits assumed): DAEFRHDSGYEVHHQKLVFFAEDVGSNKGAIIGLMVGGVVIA
substance,measurement,value
"3D6 antibody, a high-titer monoclonal Aβ antibody",[Ca2+]i of wild-type neurons treated with TgCM depleted with 3D6 (Indo-1),98 nM
